Results from US20050064507.

What was measured:
[1] = tested on: T1, M1 muscarinic receptor peptide RWDKRRWRKIPKRPGSVHRT (SEQ ID NO:155)
T1 sequence: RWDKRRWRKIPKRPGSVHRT

[2] = tested on: T2, peptide RVKLGTLRRPEGP (SEQ ID NO:58)
T2 sequence: XXPPGRVKLGTLRRPEGP

[3] = tested on: T3, peptide HERKGSDKRGDNQ (SEQ ID NO:70)
T3 sequence: XXPPGHERKGSDKRGDNQ

[4] = tested on: T4, AKAP12 peptide AGWRKKTSFRKPKED (SEQ ID NO:99)
T4 sequence: AGWRKKTSFRKPKED

[5] = tested on: T5, dag kinase zeta peptide KKKKRASFKRKSSKKG (SEQ ID NO:114)
T5 sequence: KKKKRASFKRKSSKKG

[6] = tested on: T6, MAP3K14 peptide WKGKRRSKARKKRK (SEQ ID NO:100)
T6 sequence: WKGKRRSKARKKRK

[7] = tested on: T7, ERN1 peptide ISDFGLAKKLAVGRHSFSRR (SEQ ID NO:145)
T7 sequence: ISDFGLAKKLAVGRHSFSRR

[8] = tested on: T8, Myt1 kinase peptide PPRTPGWHQLQPRRVSFRGE (SEQ ID NO:163)
T8 sequence: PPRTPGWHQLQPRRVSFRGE

[9] = tested on: T9, HERG peptide TELEGGFSRQRKRKLSFRRR (SEQ ID NO:140)
T9 sequence: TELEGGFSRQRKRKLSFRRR

[10] = tested on: T10, p164-RhoGEF peptide PRLIRRGSKKRPAR (SEQ ID NO:124)
T10 sequence: PRLIRRGSKKRPAR

[11] = tested on: T11, ubiquitin specific protease 8 peptide RARRDSLKKIEIW (SEQ ID NO:136)
T11 sequence: RARRDSLKKIEIW

[12] = tested on: T12, peptide FVHQASFKFGQGD (SEQ ID NO:41)
T12 sequence: XXPPGFVHQASFKFGQGD

[13] = tested on: T13, CREB peptide VTDSQKRREILSRRPSYPKI (SEQ ID NO:141)
T13 sequence: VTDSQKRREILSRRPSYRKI

[14] = tested on: T14, p47phox peptide QAQRQIKRGAPPRRSSIRNA (SEQ ID NO:146)
T14 sequence: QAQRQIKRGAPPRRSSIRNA

[15] = tested on: T15, phospholemman peptide EEGTFRSSIRRLSTRRR (SEQ ID NO:116)
T15 sequence: EEGTFRSSIRRLSTRRR

[16] = tested on: T16, peptide AKNLKTLQKRDSFIG (SEQ ID NO:53)
T16 sequence: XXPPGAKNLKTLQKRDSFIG

[17] = tested on: T17, peptide LLKKRDSFRTPRDSKLE (SEQ ID NO:22)
T17 sequence: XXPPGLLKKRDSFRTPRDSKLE

[18] = tested on: T18, peptide KFARKSTRRSIRLPE (SEQ ID NO:4)
T18 sequence: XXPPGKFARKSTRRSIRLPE

[19] = tested on: T19, peptide VQQLLRSSNRRLEQL (SEQ ID NO:49)
T19 sequence: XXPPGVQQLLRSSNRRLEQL

[20] = tested on: T20, peptide KKRFSFKKSFKLSGFSFKKN (SEQ ID NO:18)
T20 sequence: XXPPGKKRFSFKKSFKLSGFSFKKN

[21] = tested on: T21, peptide AGSFKRNSIKKIV (SEQ ID NO:19)
T21 sequence: XXPPGAGSFKRNSIKKIV

[22] = tested on: T22, NEURL peptide ALRRPSLRREADD (SEQ ID NO:105)
T22 sequence: ALRRPSLRREADD

[23] = tested on: T23, beta adducin peptide KKKFRTPSFLKKSKK (SEQ ID NO:135)
T23 sequence: KKKFRTPSFLKKSKK

[24] = tested on: T24, dag kinase zeta peptide RPQNTLKASKKKKRASFKRK (SEQ ID NO:118)
T24 sequence: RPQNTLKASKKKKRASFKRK

[25] = tested on: T25, PARIS1 peptide EYLERRASRRRAV (SEQ ID NO:138)
T25 sequence: EYLERRASRRRAV

[26] = tested on: T26, CACNA1C peptide RGFLRSASLGRRASFHLE (SEQ ID NO:96)
T26 sequence: RGFLRSASLGRRASFHLE

[27] = tested on: T27, PARIS1 peptide RELEQLKAEYLERRASRRRA (SEQ ID NO:148)
T27 sequence: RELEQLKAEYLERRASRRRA

[28] = tested on: T28, MacMARCKS peptide KKKFSFKKPFKLSGLSFKRN (SEQ ID NO:162)
T28 sequence: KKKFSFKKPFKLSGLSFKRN

[29] = tested on: T29, MCM2 peptide VQRHRSMRKTFARYLSFRRD (SEQ ID NO:129)
T29 sequence: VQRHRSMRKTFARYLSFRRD

[30] = tested on: T30, pleckstrin 1 peptide KAIKAIEGGQKFARKSTRRS (SEQ ID NO:126)
T30 sequence: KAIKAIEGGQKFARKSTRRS

[31] = tested on: T31, peptide EKIKRSSLKKVDSLKK (SEQ ID NO:24)
T31 sequence: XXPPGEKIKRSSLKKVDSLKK

[32] = tested on: T32, PLEK peptide KFARKSTRRSIRLPE (SEQ ID NO:78)
T32 sequence: KFARKSTRRSIRLPE

[33] = tested on: T33, ERN1 peptide KLAVGRHSFSRRSGV (SEQ ID NO:94)
T33 sequence: KLAVGRHSFSRRSGV

[34] = tested on: T34, cyclophilin G peptide TEEKSKKRKKKHRKNSRKHK (SEQ ID NO:165)
T34 sequence: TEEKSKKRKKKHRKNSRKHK

[35] = tested on: T35, peptide KEVVRTDSLKGRRGR (SEQ ID NO:30)
T35 sequence: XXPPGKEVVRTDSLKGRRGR

[36] = tested on: T36, peptide IDYYKKTSNGRLPVK (SEQ ID NO:74)
T36 sequence: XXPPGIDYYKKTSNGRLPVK

[37] = tested on: T37, ankyrin R peptide DLIEGRKGAQIVKRASLKRG (SEQ ID NO:152)
T37 sequence: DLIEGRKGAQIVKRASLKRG

[38] = tested on: T38, AF15q14 peptide GFLNEPLSSKSQRRKSLKLK (SEQ ID NO:132)
T38 sequence: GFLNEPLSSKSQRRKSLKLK

With PKC-delta the in vitro phosphorylation, 1 uM peptide (% of best substrate) [1] was 30, the in vitro phosphorylation, 10 uM peptide (% of best substrate) [1] was 23 and the in vitro phosphorylation (% of best substrate) [2] was 1. The in vitro phosphorylation (% of best substrate) [3] was 1, the in vitro phosphorylation (% of best substrate) [4] was 17 and the in vitro phosphorylation, 1 uM peptide (% of best substrate) [5] was 80. The in vitro phosphorylation, 10 uM peptide (% of best substrate) [5] was 100, the in vitro phosphorylation (% of best substrate) [6] was 22 and the in vitro phosphorylation, 1 uM peptide (% of best substrate) [7] was 34. For the same substance, the in vitro phosphorylation, 10 uM peptide (% of best substrate) [7] was 23, the in vitro phosphorylation, 1 uM peptide (% of best substrate) [8] was 13 and the in vitro phosphorylation, 10 uM peptide (% of best substrate) [8] was 21. It also gave an in vitro phosphorylation, 1 uM peptide (% of best substrate) [9] of 44, an in vitro phosphorylation, 10 uM peptide (% of best substrate) [9] of 49 and an in vitro phosphorylation, 1 uM peptide (% of best substrate) [10] of 69. For the same substance, the in vitro phosphorylation, 10 uM peptide (% of best substrate) [10] was 43, the in vitro phosphorylation, 1 uM peptide (% of best substrate) [11] was 41 and the in vitro phosphorylation, 10 uM peptide (% of best substrate) [11] was 23. The in vitro phosphorylation (% of best substrate) [12] was 3, the in vitro phosphorylation, 1 uM peptide (% of best substrate) [13] was 43 and the in vitro phosphorylation, 10 uM peptide (% of best substrate) [13] was 21. For the same substance, the in vitro phosphorylation, 1 uM peptide (% of best substrate) [14] was 33, the in vitro phosphorylation, 10 uM peptide (% of best substrate) [14] was 14 and the in vitro phosphorylation, 1 uM peptide (% of best substrate) [15] was 75. For the same substance, the in vitro phosphorylation, 10 uM peptide (% of best substrate) [15] was 41, the in vitro phosphorylation (% of best substrate) [16] was 2 and the in vitro phosphorylation (% of best substrate) [17] was 12. It also gave an in vitro phosphorylation (% of best substrate) [18] of 52, an in vitro phosphorylation (% of best substrate) [19] of 2 and an in vitro phosphorylation (% of best substrate) [20] of 16. For the same substance, the in vitro phosphorylation (% of best substrate) [21] was 14, the in vitro phosphorylation (% of best substrate) [22] was 9 and the in vitro phosphorylation, 1 uM peptide (% of best substrate) [23] was 40. For the same substance, the in vitro phosphorylation, 10 uM peptide (% of best substrate) [23] was 25, the in vitro phosphorylation, 1 uM peptide (% of best substrate) [24] was 73 and the in vitro phosphorylation, 10 uM peptide (% of best substrate) [24] was 60. The in vitro phosphorylation, 1 uM peptide (% of best substrate) [25] was 49, the in vitro phosphorylation, 10 uM peptide (% of best substrate) [25] was 28 and the in vitro phosphorylation (% of best substrate) [26] was 18. The in vitro phosphorylation, 1 uM peptide (% of best substrate) [27] was 27, the in vitro phosphorylation, 10 uM peptide (% of best substrate) [27] was 14 and the in vitro phosphorylation, 1 uM peptide (% of best substrate) [28] was 21. It also gave an in vitro phosphorylation, 10 uM peptide (% of best substrate) [28] of 13, an in vitro phosphorylation, 1 uM peptide (% of best substrate) [29] of 32 and an in vitro phosphorylation, 10 uM peptide (% of best substrate) [29] of 14. The in vitro phosphorylation, 1 uM peptide (% of best substrate) [30] was 47, the in vitro phosphorylation, 10 uM peptide (% of best substrate) [30] was 43 and the in vitro phosphorylation (% of best substrate) [31] was 10. For the same substance, the in vitro phosphorylation (% of best substrate) [32] was 52, the in vitro phosphorylation (% of best substrate) [33] was 12 and the in vitro phosphorylation, 1 uM peptide (% of best substrate) [34] was 25. The in vitro phosphorylation, 10 uM peptide (% of best substrate) [34] was 19, the in vitro phosphorylation (% of best substrate) [35] was 7 and the in vitro phosphorylation (% of best substrate) [36] was 0. It also gave an in vitro phosphorylation, 1 uM peptide (% of best substrate) [37] of 35, an in vitro phosphorylation, 10 uM peptide (% of best substrate) [37] of 18 and an in vitro phosphorylation, 1 uM peptide (% of best substrate) [38] of 41. The in vitro phosphorylation, 10 uM peptide (% of best substrate) [38] was 47.
